Laboratory results: patent US20090298761A1 (MARIEL THERAPEUTICS, published 2009)

Key:
[1] = biological target: T1, OP-1 pro domain, truncated form (human, UniProt P18075 48-292); test: reverse phase C18 HPLC separation of the purified soluble complex into pro domain and mature species, then N-terminal sequencing
T1 construct: also called truncated form of the pro region (beginning at residue 48); 48-292 truncated form
Source text: The complex components can be verified by running the complex-containing fraction from the S-200 or S-200HR columns over a reverse phase C18 HPLC column and eluting in an acetonitrile gradient (in 0.1% TFA), using standard procedures. The complex is dissociated by this step, and the pro domain and mature species elute as separate species. These separate species then can be subjected to N-terminal sequencing using standard procedures (see, for example, Guide to Protein Purification, M. Deutscher, ed., Academic Press, San Diego, 1990, particularly pp. 602-613), and the identity of the isolated 36 kD, 39 kDa proteins confirmed as mature morphogenic protein and isolated, cleaved pro domain, respectively.

[2] = biological target: T2, OP-1 pro domain, intact form (human, UniProt P18075 30-292); test: gel filtration (Sephacryl S-200HR in TBS) of soluble OP-1 complex purified from CHO conditioned media without denaturants; complex elutes at an apparent 110 kDa
T2 construct: Cleaved pro domain of 39 kDa; also called pro region; full length pro region (residues 30-292)
Experimental: The 50 mM imidazole eluate containing the soluble OP-1 complex was diluted with nine volumes of 20 mM NaPO₄ (pH 7.0) and applied to an S-Sepharose (Pharmacia) column equilibrated in 20 mM NaPO₄ (pH 7.0) with 50 mM NaCl. The S-Sepharose resin was loaded with an equivalent of 800 mL of starting conditioned media per mL of resin. After loading the S-Sepharose column was washed with equilibration buffer and eluted with 100 mM NaCl followed by 300 mM and 500 mM NaCl in 20 mM NaPO₄ (pH 7.0). The 300 mM NaCl pool was further purified using gel filtration chromatography. Fifty mls of the 300 mm NaCl eluate was applied to a 5.0×90 cm Sephacryl S-200HR (Pharmacia) equilibrated in Tris buffered saline (TBS), 50 mM Tris, 150 mM NaCl (pH 7.4). […] The apparent molecular of the soluble OP-1 was determined by comparison to protein molecular weight standards (alcohol dehydrogenase (ADH, 150 kDa), bovine serum albumin (BSA, 68 kDa), carbonic anhydrase (CA, 30 kDa) and cytochrome C (cyt C, 12.5 kDa) (see FIG. 3). The purity of the S-200 column fractions was determined by separation on standard 15% polyacrylamide SDS gels stained with coomassie blue. The identity of the mature OP-1 and the pro-domain was determined by N-terminal sequence analysis after separation of the mature OP-1 from the pro-domain using standard reverse phase C18 HPLC.

T1 sequence (P18075 48-292): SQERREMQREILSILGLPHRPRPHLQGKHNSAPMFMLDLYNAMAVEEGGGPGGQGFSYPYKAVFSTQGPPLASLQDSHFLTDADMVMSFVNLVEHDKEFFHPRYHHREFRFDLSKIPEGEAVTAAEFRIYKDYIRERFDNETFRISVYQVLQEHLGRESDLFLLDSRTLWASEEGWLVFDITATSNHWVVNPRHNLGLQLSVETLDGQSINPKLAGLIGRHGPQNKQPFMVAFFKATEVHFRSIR
T2 sequence (P18075 30-292): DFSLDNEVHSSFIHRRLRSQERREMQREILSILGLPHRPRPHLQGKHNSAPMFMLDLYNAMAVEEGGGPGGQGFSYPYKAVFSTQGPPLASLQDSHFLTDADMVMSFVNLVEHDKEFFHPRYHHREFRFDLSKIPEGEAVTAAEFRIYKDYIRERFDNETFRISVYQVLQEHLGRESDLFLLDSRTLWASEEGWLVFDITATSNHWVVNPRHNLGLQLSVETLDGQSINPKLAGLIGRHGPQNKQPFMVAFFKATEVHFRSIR

binding result [1]: binds
binding result [2]: binds
B1: mature OP-1 dimer (ligand)
chain: STGSKQRSQNRSKTPKNQEALRMANVAENSSSDQRQACKKHELYVSFRDLGWQDWIIAPEGYAAYYCEGECAFPLNSYMNATNHAIVQTLVHFINPETVPKPCCAPTQLNAISVLYFDDSSNVILKKYRNMVVRACGCH
notes: Expressed in CHO cells and purified as part of the soluble OP-1 complex; The dimer runs at 35-36 kDa; also called BMP-7; osteogenic protein-1
